Results as given in paper PMC8495968, “Towards optimizing peptide-based inhibitors of protein–protein interactions: predictive saturation variation scanning (PreSaVS)” (RSC Chemical Biology, 2021).

Experiments:
[1] = molecular target: MCL-1 (Homo sapiens), Q07820; experiment: fluorescence anisotropy competition; conditions: modification not given
[2] = molecular target: MCL-1 (Homo sapiens), Q07820; experiment: ITC; conditions: modification not given

Sequence of MCL-1 (Homo sapiens), Q07820 (Q07820 whole entry): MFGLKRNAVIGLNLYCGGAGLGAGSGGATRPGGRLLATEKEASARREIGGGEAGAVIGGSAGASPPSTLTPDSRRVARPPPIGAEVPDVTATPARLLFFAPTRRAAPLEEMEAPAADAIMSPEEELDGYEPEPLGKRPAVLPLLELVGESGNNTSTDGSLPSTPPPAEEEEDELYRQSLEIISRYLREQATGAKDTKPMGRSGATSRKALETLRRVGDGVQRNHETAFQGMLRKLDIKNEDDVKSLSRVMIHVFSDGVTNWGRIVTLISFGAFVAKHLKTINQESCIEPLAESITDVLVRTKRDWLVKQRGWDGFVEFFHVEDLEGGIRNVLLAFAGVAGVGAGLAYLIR

Row | IC50 [1] | Kd [2] | Binder
1 | > 100000 nM | – | CAQYRRIGDKVNLRQKLLN [NOXA75–93 L78Y 75-93, Q9JM54]
2 | > 20000 nM | 800 nM | CAQLRRIGDKFNLRQKLLN [NOXA75–93 V85F 75-93, Q9JM54]

The remaining lines, values behind:

Row | Binder | IC50 [1] | Kd [2]
3 | CAQFRRIGDKVNLRQKLLN [NOXA75–93 L78F 75-93, Q9JM54] | 2700 nM | 1700 nM
4 | CAQWRRIGDKVNLRQKLLN [NOXA75–93 L78W 75-93, Q9JM54] | 2200 nM | 2400 nM
